Assay results reported in patent US20200248181.

System: gluten (wheat allergen)
Test: SPR
Conditions: 20-mer poly(dA) added at 5' end for SPR immobilization; 40 mM HEPES pH 7.5, 125 mM NaCl, 5 mM KCl, 1 mM MgCl2, 0.01% Tween 20; aptamer immobilized via poly(dA)/biotin-poly(dT)

Sequence | Kd [nM]
GAGGTTGGGTGGGGGAGG [Aptamer 2] | 18.6
GAGGTTGGGTGGGGGAGGCAGCATGCGGGA [Aptamer 1] | 14.5
